Reference: PMC4914113, “Another look at the mechanism involving trimeric dUTPases in Staphylococcus aureus pathogenicity island induction involves novel players in the party” (Nucleic Acids Research, 2016)

Key:
[1] = molecular target: Dut80α D81A D110C S168C (Staphylococcus aureus phage 80α); test: BLI; as a1 but non-reducing buffer (400 mM NaCl, 75 mM HEPES pH 7.5, 5 mM MgCl2) with 0.5 mM dUPNPP; 1:1 model
[2] = molecular target: Dut80α^ΔV, Dut80α motif V deletion mutant (Staphylococcus aureus phage 80α); test: BLI; as a1, buffer STL supplemented with 5 mM dUMP (baselines and dissociation without nucleotide); 1:1 model
[3] = molecular target: Dut80α^WT, wild-type dUTPase of phage 80α (Staphylococcus aureus phage 80α); test: as above
[4] = molecular target: Dutϕ11^WT, wild-type dUTPase of phage ϕ11 (Staphylococcus aureus phage ϕ11); test: as above
[5] = molecular target: Dutϕ11^ΔVI-IV-80α (Staphylococcus aureus phage ϕ11); test: BLI; BLItz; His-tagged Dut immobilised at 1 μM on Ni-NTA biosensors, Stl in solution (at least five dilutions, 4 to 0.062 μM); buffer STL (400 mM NaCl, 75 mM HEPES pH 7.5, 5 mM MgCl2, 2 mM DTT); no nucleotide; 1:1 model
[6] = molecular target: Dut80α^D81A (Staphylococcus aureus phage 80α); test: as above
[7] = molecular target: Dut80α^ΔVI-IV-11 (Staphylococcus aureus phage 80α); test: as above
[8] = molecular target: Dutϕ11^ΔV-ΔVI (Staphylococcus aureus phage ϕ11); test: as above
[9] = molecular target: Dutϕ11^(ΔVI F164A) (Staphylococcus aureus phage ϕ11); test: as above
[10] = molecular target: Dut80α^G164S (Staphylococcus aureus phage 80α); test: as above
[11] = molecular target: Dut80α^ΔV, Dut80α motif V deletion mutant (Staphylococcus aureus phage 80α); test: as above
[12] = molecular target: Dut80α^ΔVI, Dut80α lacking motif VI (Staphylococcus aureus phage 80α); test: as above
[13] = molecular target: Dut80α D81A D110C S168C (Staphylococcus aureus phage 80α); test: as above
[14] = molecular target: Dut80α^IV-11 (Staphylococcus aureus phage 80α); test: as above
[15] = molecular target: Dut80α^Y84I (Staphylococcus aureus phage 80α); test: as above

Substance: Stl repressor from SaPIbov1 (natural protein)
- Kd [1]: 19.3 nM
- koff [1]: 0.0011 s⁻¹
- kon [1]: 57000 M⁻¹ s⁻¹
- Kd [2]: 602 nM
- koff [2]: 0.005 s⁻¹
- kon [2]: 8300 M⁻¹ s⁻¹
- Kd [3]: 23.5 nM
- koff [3]: 0.0008 s⁻¹
- kon [3]: 34000 M⁻¹ s⁻¹
- Kd [4]: 1.93 nM
- koff [4]: 5.8e-05 s⁻¹
- kon [4]: 30000 M⁻¹ s⁻¹
- Kd [5]: > 1000 nM
- Kd [6]: 161 nM
- koff [6]: 0.0042 s⁻¹
- kon [6]: 26000 M⁻¹ s⁻¹
- Kd [7]: 4.56 nM
- koff [7]: 0.00026 s⁻¹
- kon [7]: 57000 M⁻¹ s⁻¹
- Kd [8]: 111 nM
- koff [8]: 0.0019 s⁻¹
- kon [8]: 17000 M⁻¹ s⁻¹
- Kd [9]: 131 nM
- koff [9]: 0.0021 s⁻¹
- kon [9]: 16000 M⁻¹ s⁻¹
- Kd [10]: 156 nM
- koff [10]: 0.0047 s⁻¹
- kon [10]: 30000 M⁻¹ s⁻¹
- Kd [11]: 530 nM
- koff [11]: 0.009 s⁻¹
- kon [11]: 17000 M⁻¹ s⁻¹
- Kd [12]: > 1000 nM
- Kd [13]: 58.3 nM
- koff [13]: 0.0014 s⁻¹
- kon [13]: 24000 M⁻¹ s⁻¹
- Kd [14]: 3.13 nM
- koff [14]: 0.00021 s⁻¹
- kon [14]: 67000 M⁻¹ s⁻¹
- Kd [15]: > 1000 nM
